Sequences and labels used below:
B1: 4B12-20 (Fab, V domains shown)
VH: QVQLVQSGAEVKKPGASVKVSCKASGYTFTNYDIIWVRQAPGQGLEWMGYINPYNGRREYAEKFKGRVTMTRDTSTSTVYMELSSLRSEDTAVYYCARLLKYRRFRYYAIDYWGQGTTVTVSS
VL: DIQMTQSPSSLSASVGDRVTITCRASEPVYSNVAWYQQKPGKAPKLLIYAASNLQSGVPSRFSGSGSGTDYTFTISSLQPEDIATYYCQHFWGSPFTFGQGTKLEIK
notes: Fab
B2: 4B12-26 (Fab, V domains shown)
VH: QVQLVQSGAEVKKPGASVKVSCKASGYTFTNYDIIWVRQAPGQGLEWMGYINPYNGRREYNEKFKGRVTMTRDTSTSTVYMELSSLRSEDTAVYYCARLLKYRRFAYYAIDYWGQGTTVTVSS
VL: DIQMTQSPSSLSASVGDRVTITCRASEPVYSNVAWYQQKPGKAPKLLIYAASNLQSGVPSRFSGSGSGTDYTFTISSLQPEDIATYYCQHFWGSPFTFGQGTKLEIK
notes: Fab
B3: 4B12-22 (Fab, V domains shown)
VH: QVQLVQSGAEVKKPGASVKVSCKASGYTFTNYDIIWVRQAPGQGLEWMGYINPYNGRREYNEKFKGRVTMTRDTSTSTVYMELSSLRSEDTAVYYCARLLKYARFRYYAIDYWGQGTTVTVSS
VL: DIQMTQSPSSLSASVGDRVTITCRASEPVYSNVAWYQQKPGKAPKLLIYAASNLQSGVPSRFSGSGSGTDYTFTISSLQPEDIATYYCQHFWGSPFTFGQGTKLEIK
notes: Fab
B4: 4B12-23 (Fab, V domains shown)
VH: QVQLVQSGAEVKKPGASVKVSCKASGYTFTNYDIIWVRQAPGQGLEWMGYINPYNGRREYNEKFKGRVTMTRDTSTSTVYMELSSLRSEDTAVYYCARLLKYRAFRYYAIDYWGQGTTVTVSS
VL: DIQMTQSPSSLSASVGDRVTITCRASEPVYSNVAWYQQKPGKAPKLLIYAASNLQSGVPSRFSGSGSGTDYTFTISSLQPEDIATYYCQHFWGSPFTFGQGTKLEIK
notes: Fab
B5: 4B12-24 (Fab, V domains shown)
VH: QVQLVQSGAEVKKPGASVKVSCKASGYTFTNYDIIWVRQAPGQGLEWMGYINPYNGRREYNEKFKGRVTMTRDTSTSTVYMELSSLRSEDTAVYYCARLLKYRRFSYYAIDYWGQGTTVTVSS
VL: DIQMTQSPSSLSASVGDRVTITCRASEPVYSNVAWYQQKPGKAPKLLIYAASNLQSGVPSRFSGSGSGTDYTFTISSLQPEDIATYYCQHFWGSPFTFGQGTKLEIK
notes: Fab
B6: 5-B1 (Fab, V domains shown)
VH: QVQLVQSGAEVKKPGASVKVSCKASGYTFTNYVILWVRQAPGQGLEWMGYINPYNDGTKYNEKFKGRVTMTRDTSTSTVYMELSSLRSEDTAVYYCARLLKYRRFTYYAIHYWGQGTTVTVSS
VL: DIQMTQSPSSLSASVGDRVTITCRASENVYSNLAWYQQKPGKAPKLLIYAASNLQSGVPSRFSGSGSGTDFTFTISSLQPEDIATYYCQHFWYSPFTFGQGTKLEIK
notes: Fab
B7: 5-E2 (Fab, V domains shown)
VH: QVQLVQSGAEVKKPGASVKVSCKASGYTFTNYVILWVRQAPGQGLEWMGYINPYNDGTKYNEKFKGRVTMTRDTSTSTVYMELSSLRSEDTAVYYCARLLKYRRFKYYAIDYWGQGTTVTVSS
VL: DIQMTQSPSSLSASVGDRVTITCRASENVYSNLAWYQQKPGKAPKLLIYAASNLQSGVPSRFSGSGSGTDFTFTISSLQPEDIATYYCQHFWYSPFTFGQGTKLEIK
notes: Fab
B8: 5-D1 (Fab, V domains shown)
VH: QVQLVQSGAEVKKPGASVKVSCKASGYTFTNYVILWVRQAPGQGLEWMGYINPYNDGTKYNEKFKGRVTMTRDTSTSTVYMELSSLRSEDTAVYYCARLLKYRRFRYYAIDVWGQGTTVTVSS
VL: DIQMTQSPSSLSASVGDRVTITCRASENVYSNLAWYQQKPGKAPKLLIYAASNLQSGVPSRFSGSGSGTDFTFTISSLQPEDIATYYCQNFWYSPFTFGQGTKLEIK
notes: Fab
B9: 5-B8 (Fab, V domains shown)
VH: QVQLVQSGAEVKKPGASVKVSCKASGYTFTNYVILWVRQAPGQGLEWMGYINPYNDGTKYNEKFKGRVTMTRDTSTSTVYMELSSLRSEDTAVYYCARLLKYRRFRYYAIDYWGQGTTVTVSS
VL: DIQMTQSPSSLSASVGDRVTITCRASENVYSNLAWYQQKPGKAPKLLIYAASNLQSGVPSRFSGSGSGTDFTFTISSLQPEDIATYYCQQFWYSPFTFGQGTKLEIK
notes: Fab
B10: 4B12-29 (Fab, V domains shown)
VH: QVQLVQSGAEVKKPGASVKVSCKASGYTFTNYDIIWVRQAPGQGLEWMGYINPYNGRREYNEKFKGRVTMTRDTSTSTVYMELSSLRSEDTAVYYCARLLKYRRARYYAIDYWGQGTTVTVSS
VL: DIQMTQSPSSLSASVGDRVTITCRASEPVYSNVAWYQQKPGKAPKLLIYAASNLQSGVPSRFSGSGSGTDYTFTISSLQPEDIATYYCQHFWGSPFTFGQGTKLEIK
notes: Fab
B11: 5-B2 (Fab, V domains shown)
VH: QVQLVQSGAEVKKPGASVKVSCKASGYTFTNYVILWVRQAPGQGLEWMGYINPYNDGTKYNEKFKGRVTMTRDTSTSTVYMELSSLRSEDTAVYYCARLLKYRRFSYYAIDYWGQGTTVTVSS
VL: DIQMTQSPSSLSASVGDRVTITCRASENVYSNLAWYQQKPGKAPKLLIYAASNLQSGVPSRFSGSGSGTDFTFTISSLQPEDIATYYCQHFDYSPFTFGQGTKLEIK
notes: Fab
B12: 4B12-27 (Fab, V domains shown)
VH: QVQLVQSGAEVKKPGASVKVSCKASGYTFTNYDIIWVRQAPGQGLEWMGYINPYNGRREYNEKFKGRVTMTRDTSTSTVYMELSSLRSEDTAVYYCARLLKARRFRYYAIDYWGQGTTVTVSS
VL: DIQMTQSPSSLSASVGDRVTITCRASEPVYSNVAWYQQKPGKAPKLLIYAASNLQSGVPSRFSGSGSGTDYTFTISSLQPEDIATYYCQHFWGSPFTFGQGTKLEIK
notes: Fab
B13: 4B12-25 (Fab, V domains shown)
VH: QVQLVQSGAEVKKPGASVKVSCKASGYTFTNYDIIWVRQAPGQGLEWMGYINPYNGRREYNEKFKGRVTMTRDTSTSTVYMELSSLRSEDTAVYYCARLLRYRRFRYYAIDYWGQGTTVTVSS
VL: DIQMTQSPSSLSASVGDRVTITCRASEPVYSNVAWYQQKPGKAPKLLIYAASNLQSGVPSRFSGSGSGTDYTFTISSLQPEDIATYYCQHFWGSPFTFGQGTKLEIK
notes: Fab
B14: 4B12-21 (Fab, V domains shown)
VH: QVQLVQSGAEVKKPGASVKVSCKASGYTFTNYDIIWVRQAPGQGLEWMGYINPYNGRREYNEKFKGRVTMTRDTSTSTVYMELSSLRSEDTAVYYCARLLAYRRFRYYAIDYWGQGTTVTVSS
VL: DIQMTQSPSSLSASVGDRVTITCRASEPVYSNVAWYQQKPGKAPKLLIYAASNLQSGVPSRFSGSGSGTDYTFTISSLQPEDIATYYCQHFWGSPFTFGQGTKLEIK
notes: Fab
B15: 4B12-28 (Fab, V domains shown)
VH: QVQLVQSGAEVKKPGASVKVSCKASGYTFTNYDIIWVRQAPGQGLEWMGYINPYNGRREYNEKFKGRVTMTRDTSTSTVYMELSSLRSEDTAVYYCARLLKYRRERYYAIDYWGQGTTVTVSS
VL: DIQMTQSPSSLSASVGDRVTITCRASEPVYSNVAWYQQKPGKAPKLLIYAASNLQSGVPSRFSGSGSGTDYTFTISSLQPEDIATYYCQHFWGSPFTFGQGTKLEIK
notes: Fab

TrkB, sequence (Q16620 32-430 limits assumed): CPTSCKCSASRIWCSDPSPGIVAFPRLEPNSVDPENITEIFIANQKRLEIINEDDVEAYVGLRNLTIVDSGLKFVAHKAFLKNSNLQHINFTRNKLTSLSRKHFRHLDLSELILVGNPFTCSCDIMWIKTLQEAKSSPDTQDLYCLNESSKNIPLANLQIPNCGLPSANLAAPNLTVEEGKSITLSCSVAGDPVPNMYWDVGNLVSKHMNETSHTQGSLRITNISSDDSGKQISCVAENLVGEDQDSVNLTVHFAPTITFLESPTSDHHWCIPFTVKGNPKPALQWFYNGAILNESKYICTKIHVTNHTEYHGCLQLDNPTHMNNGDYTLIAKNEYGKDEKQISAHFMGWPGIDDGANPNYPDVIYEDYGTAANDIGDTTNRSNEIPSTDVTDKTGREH

The experiment concerns the target TrkB (Homo sapiens (Human), UniProt Q16620 32-430). Put plainly: koff of Fab at 25 C; T1/2=Log2/koff. The method in brief: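 Monovalent Fab fragments were tested at 25° C by surface plasmon resonance on a Biacore instrument, against TrkB extracellular-domain monomer amine-coupled to the chip at low capacity. Fabs were injected low to high as a 3-fold serial dilution from 100 nM for 84 sec, with a 10 minute dissociation after the top sample. The dissociation half-life was calculated from koff, which was fitted to a Langmuir binding model in BIAevaluation. The formula used was T1/2 = Log 2/koff.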
In the case of B1, the T1/2 was found to be 12.2 min.

B2 came in with a T1/2 of 8.1 min. For B3 the value was 3.5 min. The molecule B4 came in with a T1/2 of 10.8 min. On to B5, for which the T1/2 is 6 min. Turning to B6, the T1/2 turned out to be 1.36 min. For B7 the value was 1.66 min. In the case of B8 it was 1.61 min. In the case of B9 it was 1.82 min; in that of B10, 5.6 min; in that of B11, 1.55 min. In turn, B12 yielded a T1/2 of 0.5 min. For B13 the value was 1.1 min; for B14, 0.3 min; for B15, 5.4 min.

Values taken from patent US20100196390A1 (RINAT NEUROSCIENCE, published 2010).
